Data reported in patent publication US20170306033A1 (Amgen, published 2017).
Positions count from the first letter of the chain named.

T1: human PAC1 receptor (human, UniProt P41586 21-468)
T1 sequence: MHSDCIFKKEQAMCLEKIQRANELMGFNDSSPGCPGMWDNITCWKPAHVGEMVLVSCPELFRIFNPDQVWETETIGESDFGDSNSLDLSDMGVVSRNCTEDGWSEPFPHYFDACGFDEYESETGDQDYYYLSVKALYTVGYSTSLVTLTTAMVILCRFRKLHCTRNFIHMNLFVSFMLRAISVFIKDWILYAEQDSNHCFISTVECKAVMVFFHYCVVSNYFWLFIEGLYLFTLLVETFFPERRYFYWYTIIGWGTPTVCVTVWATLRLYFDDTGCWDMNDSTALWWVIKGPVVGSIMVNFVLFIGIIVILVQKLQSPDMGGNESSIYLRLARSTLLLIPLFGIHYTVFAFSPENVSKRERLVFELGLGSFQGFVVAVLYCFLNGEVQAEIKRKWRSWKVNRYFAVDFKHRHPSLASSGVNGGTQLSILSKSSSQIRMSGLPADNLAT

B1: iPS:327283 (bispecific antibody, human IgG1, kappa, lambda, N297G)
light 1: EIVLTQSPATLSLSPGERATLSCRASQSVGRSLHWYQQKPGQAPRLLIKYASQSLSGIPARFSGSGSGTDFTLTISSLEPEDFAVYYCHQSSRLPFTFGPGTKVDIKRTVAAPSVFIFPPSDEQLKSGTASVVCLLNNFYPREAKVQWKVDNALQSGNSQESVTEQDSKDSTYSLESTLTLSKADYEKHKVYACEVTHQGLSSPVTKSFNRGEC
heavy 1: not shown
light 2: QSVLTQPPSVSAAPGQKVTISCSGSSSNIGNNYVSWYQQLPGTAPKLLIYDNNKRPSGIPDRFSGSKSGTSTTLGITGLQTGDEADYYCGTWDSRLSAVVFGGGTKLTVLGQPKANPTVTLFPPSSEELQANKATLVCLISDFYPGAVTVAWKADGSPVKAGVETTKPSKQSNNKYAAKSYLSLTPEQWKSHRSYSCQVTHEGSTVEKTVAPTECS
heavy 2: QVQLVESGGGVVQPGRSLRLSCAASGFTFSSFGMHWVRQAPGKGLEWVAVISFDGSIKYSVDSVKGRFTISRDNSKNTLFLQMNSLRAEDTAVYYCARDRLNYYDSSGYYHYKYYGMAVWGQGTTVTVSSASTKGPSVFPLAPSSKSTSGGTAALGCLVKDYFPEPVTVSWNSGALTSGVHTFPAVLQSSGLYSLESVVTVPSSSLGTQTYICNVNHKPSNTKVDKKVEPKSCDKTHTCPPCPAPELLGGPSVFLFPPKPKDTLMISRTPEVTCVVVDVSHEDPEVKFNWYVDGVEVHNAKTKPCEEQYGSTYRCVSVLTVLHQDWLNGKEYKCKVSNKALPAPIEKTISKAKGQPREPQVYTLPPSRKEMTKNQVSLTCLVKGFYPSDIAVEWESNGQPENNYKTTPPVLKSDGSFFLYSKLTVDKSRWQQGNVFSCSVMHEALHNHYTQKSLSLSPGK
B2: iPS:327280 (bispecific antibody, human IgG1, kappa, lambda, N297G)
light 1: not shown
heavy 1: not shown
light 2: B1 light 2
heavy 2: B1 heavy 2
B3: iPS:327285 (bispecific antibody, human IgG1, kappa, lambda, N297G)
light 1: not shown
heavy 1: not shown
light 2: B1 light 2 with G103K
heavy 2: B1 heavy 2 with G44E
B4: iPS:327279 (bispecific antibody, human IgG1, kappa, lambda, N297G)
light 1: B1 light 1
heavy 1: not shown
light 2: not shown
heavy 2: not shown
B5: iPS:328000 (bispecific antibody, human IgG2, kappa, lambda)
light 1: not shown
heavy 1: QVQLQESGPGLVKPSQTLSLTCTVSGGSISSGGYYWSWIRQHPGKGLEWIGYIYYSGNTYYNPSLKSRVTISGDTSKNQFSLKLRSVTAADTAVYYCTRGGAARGMDVWGQGTTVTVSSASTKGPSVFPLAPCSRSTSESTAALGCLVKDYFPEPVTVSWNSGALTSGVHTFPAVLQSSGLYSLKSVVTVPSSNFGTQTYTCNVDHKPSNTKVDKTVERKCCVECPPCPAPPVAGPSVFLFPPKPKDTLMISRTPEVTCVVVDVSHEDPEVQFNWYVDGVEVHNAKTKPREEQFNSTFRVVSVLTVVHQDWLNGKEYKCKVSNKGLPAPIEKTISKTKGQPREPQVYTLPPSREEMTKNQVSLTCLVDGFYPSDIAVEWESNGQPENNYDTTPPMLDSDGSFFLYSDLTVDKSRWQQGNVFSCSVMHEALHNHYTQKSLSLSPGK
light 2: B1 light 2
heavy 2: QVQLVESGGGVVQPGRSLRLSCAASGFTFSSFGMHWVRQAPGKGLEWVAVISFDGSIKYSVDSVKGRFTISRDNSKNTLFLQMNSLRAEDTAVYYCARDRLNYYDSSGYYHYKYYGMAVWGQGTTVTVSSASTKGPSVFPLAPCSRSTSESTAALGCLVKDYFPEPVTVSWNSGALTSGVHTFPAVLQSSGLYSLESVVTVPSSNFGTQTYTCNVDHKPSNTKVDKTVERKCCVECPPCPAPPVAGPSVFLFPPKPKDTLMISRTPEVTCVVVDVSHEDPEVQFNWYVDGVEVHNAKTKPREEQFNSTFRVVSVLTVVHQDWLNGKEYKCKVSNKGLPAPIEKTISKTKGQPREPQVYTLPPSRKKMTKNQVSLTCLVKGFYPSDIAVEWESNGQPENNYKTTPPMLKSDGSFFLYSKLTVDKSRWQQGNVFSCSVMHEALHNHYTQKSLSLSPGK
B6: iPS:327284 (bispecific antibody, human IgG1, kappa, lambda, N297G)
light 1: DIQMTQSPSSLSASVGDRITITCRASQSISRYLNWYQQKPGKAPKLLIYAASSLQSGIPSRFSGSGSGTDFTLTINSLQPEDFATYFCQQSYSPPFTFGEGTKVDIKRTVAAPSVFIFPPSDEQLKSGTASVVCLLNNFYPREAKVQWKVDNALQSGNSQESVTEQDSKDSTYSLESTLTLSKADYEKHKVYACEVTHQGLSSPVTKSFNRGEC
heavy 1: not shown
light 2: B1 light 2 with G103K
heavy 2: B1 heavy 2 with G44E
B7: iPS:326417 (bispecific antibody, human IgG1, kappa, N297G)
light 1: not shown
heavy 1: not shown
light 2: EIVLTQSPGTLSLSPGERATLSCRASQSVSSGYLTWYQQKPGQAPRLLIYGASSRATGIPDRFSGSGSGTDFTLTISRLEPEDFAVYYCQQYGNSLSRFGQGTKLEIKRTVAAPSVFIFPPSDEQLKSGTASVVCLLNNFYPREAKVQWKVDNALQSGNSQESVTEQDSKDSTYSLKSTLTLSKADYEKHKVYACEVTHQGLSSPVTKSFNRGEC
heavy 2: not shown
B8: iPS:326628 (bispecific antibody, human IgG2, kappa, lambda)
light 1: DIQLTQSPSFLSASVGDRVTITCRASQSIGRSLHWYQQKPGKAPKLLIKYASQSLSGVPSRFSGSGSGTEFTLTISSLQPEDFATYYCHQSSRLPFTFGPGTKVDIKRTVAAPSVFIFPPSDEQLKSGTASVVCLLNNFYPREAKVQWKVDNALQSGNSQESVTEQDSKDSTYSLESTLTLSKADYEKHKVYACEVTHQGLSSPVTKSFNRGEC
heavy 1: QVQLVESGAEVVKPGASVKVSCKASGFTFSRFAMHWVRQAPGQGLEWMGVISYDGGNKYYAESVKGRVTMTRDTSTSTLYMELSSLRSEDTAVYYCARGYDVLTGYPDYWGQGTLVTVSSASTKGPSVFPLAPCSRSTSESTAALGCLVKDYFPEPVTVSWNSGALTSGVHTFPAVLQSSGLYSLKSVVTVPSSNFGTQTYTCNVDHKPSNTKVDKTVERKCCVECPPCPAPPVAGPSVFLFPPKPKDTLMISRTPEVTCVVVDVSHEDPEVQFNWYVDGVEVHNAKTKPREEQFNSTFRVVSVLTVVHQDWLNGKEYKCKVSNKGLPAPIEKTISKTKGQPREPQVYTLPPSREEMTKNQVSLTCLVDGFYPSDIAVEWESNGQPENNYDTTPPMLDSDGSFFLYSDLTVDKSRWQQGNVFSCSVMHEALHNHYTQKSLSLSPGK
light 2: not shown
heavy 2: not shown
B9: iPS:327286 (bispecific antibody, human IgG1, kappa, lambda, N297G)
light 1: B8 light 1 with P100E
heavy 1: not shown
light 2: B1 light 2 with G103K
heavy 2: B1 heavy 2 with G44E
B10: iPS:327278 (bispecific antibody, human IgG1, kappa, lambda, N297G)
light 1: B8 light 1
heavy 1: not shown
light 2: not shown
heavy 2: not shown
B11: iPS:327282 (bispecific antibody, human IgG1, kappa, lambda, N297G)
light 1: B8 light 1
heavy 1: not shown
light 2: B1 light 2
heavy 2: B1 heavy 2

Each binder was assayed against T1, human PAC1 receptor (assay: cell-based or functional assay).

Row | % inhibition of human PAC1 | Binder
1 | 99% | B1
2 | 83% | B2
3 | 9% | B3
4 | 95% | B4
5 | 63% | B5
6 | 25% | B6
7 | 48% | B7
8 | 61% | B8
9 | 23% | B9
10 | 47% | B10
11 | 58% | B11

What follows are binders tested against human CGRP receptor (human, UniProt Q16602 23-461; O60894 27-148) (assay: cell-based or functional assay).
Sequence of human CGRP receptor (Q16602 23-461 limits assumed, chain 1 of 2): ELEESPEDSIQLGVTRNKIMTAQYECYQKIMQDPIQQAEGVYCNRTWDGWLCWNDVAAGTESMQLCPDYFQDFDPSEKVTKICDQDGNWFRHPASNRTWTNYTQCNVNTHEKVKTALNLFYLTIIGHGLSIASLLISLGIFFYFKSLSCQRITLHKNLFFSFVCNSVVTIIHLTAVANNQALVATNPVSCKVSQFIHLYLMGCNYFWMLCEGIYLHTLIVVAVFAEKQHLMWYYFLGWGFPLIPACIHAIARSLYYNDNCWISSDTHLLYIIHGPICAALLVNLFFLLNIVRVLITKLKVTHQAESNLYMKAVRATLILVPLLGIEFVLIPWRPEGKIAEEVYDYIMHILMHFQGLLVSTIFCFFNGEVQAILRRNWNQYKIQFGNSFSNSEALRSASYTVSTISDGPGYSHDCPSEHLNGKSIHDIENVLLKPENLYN
Sequence of human CGRP receptor (O60894 27-148 limits assumed, chain 2 of 2): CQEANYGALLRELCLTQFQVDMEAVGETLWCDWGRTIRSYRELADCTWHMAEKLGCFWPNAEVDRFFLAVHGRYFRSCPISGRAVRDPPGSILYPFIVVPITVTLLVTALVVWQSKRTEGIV

Row | % inhibition of human CGRPR | Binder
12 | 85% | B1
13 | 80% | B2
14 | 84% | B3
15 | 73% | B4
16 | 75% | B5
17 | 77% | B6
18 | 66% | B7
19 | 84% | B8
20 | 85% | B9
21 | 85% | B10
22 | 87% | B11
